Measurements from patent US20230167179A1 (CENTRE NATIONAL DE LA RECHERCHE SCIENTIFIQUE, published 2023).

B1: 908.10E12C1 (antibody, IgG1, V domains shown)
VH: EVQLQQSGPELVKPGASVKISCKTSGYTFTEYTMHWVKQSHGKSLEWIGSINPNNGGTNYNQKFKGKATLTVDKSSNTAYMELRSLTSGDSAVYYCARTLYYAMDYWGQGTSVTVSS
VL: DIVMTQSPSSLAMSVGQKVTMSCKSSQSLLNSSNQKNYLAWYQQKPRQSPKLLVYFASTRDSGVPDRFLGSGSGTDFTLTINRVQAEDLADYFCQQHYILPPTFGAGTKLELK
B2: 908.9G5B9 (antibody, V domains shown)
VH: EVQLQQSGAELVKPGASVKLSCTVSGFNITDTYIHWVKQRPEKGLEWIGRIDPANGNTKYDPKLQGKATITADTSSNTAYLQLSSLTSEDTAVYYCARDGTYVYYAMDYWGQGTSVTVSS
VL: DIQMTQSPASLSASVGETVTITCRASENIFIYLAWYQQKQGKSPQLLVYNAKTLAEGVPSRFSGSGSGTQFSLKINSLLPEDFGSYYCQHHYGIPFTFGSGTKLEIE
notes: Biotinylated in the Octet assay; fixed (capture) antibody in the sandwich ELISAs
B3: 908.9E11B6 (antibody, IgG1, V domains shown)
VH: QVQLKESGPGLVAPSQSLSITCTVSGFSLTSYGVHWVRQPPGKGLEWLGVIWAGGVTHYNSALMSRLNISKDNSQSQVFLKMNSLRTDDTAMYYCARGGALLRSHFDYWGQGTTLTVSS
VL: QAVVTQESALTTSPGETVTLTCRSSTGAVTTSNYANWVQEKPDHLFTGLIGGTNNRAPGVPARFSGSLIGDKAALTITGAQTEDEAIYHCALWYSNLWVFGGRTKLTVL

Legend:
[1] = molecular target: recombinant IL-1RA (Homo sapiens (Human)) (UniProt P18510); experiment: Octet BLI, comparison of KD
recombinant IL-1RA (Homo sapiens (Human)), sequence (P18510 26-177): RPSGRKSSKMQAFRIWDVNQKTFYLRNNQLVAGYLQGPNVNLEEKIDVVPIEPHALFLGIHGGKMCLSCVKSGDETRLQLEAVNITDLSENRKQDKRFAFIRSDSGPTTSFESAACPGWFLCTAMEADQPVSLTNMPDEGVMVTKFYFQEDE

[2] = molecular target: recombinant IL-1RA (Homo sapiens (Human)) (UniProt P18510); experiment: Octet BLI, biotinylated antibody on streptavidin biosensor, IL-1RA at 50 nM
[3] = molecular target: recombinant IL-1RA (Homo sapiens (Human)) (UniProt P18510); experiment: Octet BLI, biotinylated antibody on streptavidin biosensor, IL-1RA at 14.8 nM
[4] = molecular target: recombinant IL-1RA (Homo sapiens (Human)) (UniProt P18510); experiment: Octet BLI, biotinylated antibody on streptavidin biosensor, IL-1RA at 22.2 nM
[5] = molecular target: recombinant IL-1RA (Homo sapiens (Human)) (UniProt P18510); experiment: Octet BLI, biotinylated antibody on streptavidin biosensor, IL-1RA at 33.3 nM
[6] = molecular target: recombinant IL-1RA (Homo sapiens (Human)) (UniProt P18510); experiment: Octet BLI, biotinylated antibody on streptavidin biosensor, IL-1RA at 9.87 nM
[7] = molecular target: recombinant IL-1RA (Homo sapiens (Human)) (UniProt P18510); experiment: Octet BLI, biotinylated antibody on streptavidin biosensor, IL-1RA in solution, 1:1 fit
recombinant IL-1RA [8] = molecular target: T1, recombinant IL-1RA (Homo sapiens (Human), UniProt P18510 26-177); experiment: Octet BLI, biotinylated antibody on streptavidin biosensor, IL-1RA at 2.37 nM
T1 construct: also called IL-1RA antigen; IL-RA
T1 sequence (P18510 26-177): as above
Procedure: (§1) This antigen was tested at 12 nM at the first point, then diluted 1.5 times on 6 points for the first 4 antibodies.

recombinant IL-1RA [9] = molecular target: T1, recombinant IL-1RA; experiment: Octet BLI, biotinylated antibody on streptavidin biosensor, IL-1RA at 3.55 nM
Procedure: as §1

recombinant IL-1RA [10] = molecular target: T1, recombinant IL-1RA; experiment: Octet BLI, biotinylated antibody on streptavidin biosensor, IL-1RA at 5.33 nM
Procedure: as §1

recombinant IL-1RA [11] = molecular target: T1, recombinant IL-1RA; experiment: Octet BLI, biotinylated antibody on streptavidin biosensor, IL-1RA in solution, 1:1 fit over 4 concentrations
Procedure: as §1
For each antibody, 4 concentrations were used to calculate the KD. The constant KD is related to the rate of complex formation (described by the rate constant of association, kon) and the rate of dissociation (described by the rate constant of dissociation, kdis), with KD=kdis/kon. A high affinity interaction is characterized by a low KD, rapid recognition (high kon) and stability of the complexes formed (low kdis). The R2 makes it possible to estimate the reliability of the results obtained (the closer it is to 1, the more reliable the results).

Molecule | fold lower affinity than the antibodies selected in examples 2, 3 [1] [times] | Response [2] | Response [3] | Response [4] | Response [5] | Response [6] | Kd [7] [nM] | koff [7] [s⁻¹] | kon [7] [M⁻¹ s⁻¹] | Response (recombinant IL-1RA [8]) | Response (recombinant IL-1RA [9]) | Response (recombinant IL-1RA [10]) | Kd (recombinant IL-1RA [11]) [nM] | koff (recombinant IL-1RA [11]) [s⁻¹] | kon (recombinant IL-1RA [11]) [M⁻¹ s⁻¹]
anti-IL-1RA antibody MAB280 from R&D Systems | > 10 | 0.151 | 0.0761 | 0.105 | 0.121 | 0.0638 | 50.8 | 0.00718 | 142000 | – | – | – | – | – | –
B1 | – | – | – | – | – | – | – | – | – | 0.107 | 0.15 | 0.21 | 1.76 | 0.000464 | 264000
B2 | – | – | – | – | – | – | – | – | – | 0.092 | 0.132 | 0.2 | 3.84 | 0.00131 | 342000
B3 | – | – | – | – | – | – | – | – | – | 0.101 | 0.154 | 0.229 | 4.86 | 0.000865 | 178000
